In test [1] the target is T1, IGF1R-Fc (extracellular domain of human IGF1R aa 1-932 fused to hinge and constant regions of human IgG1) (human, UniProt P08069 31-932).
T1 construct: range 1-932; made in house by transient transfection, purified on Protein A; also called IGF-IR-Fc; not shown: hinge and constant regions of human IgG1

The target of test [2] is T2, EGFR on the surface of human tumour cells (A431, H292) (human, UniProt P00533 25-1210).
T2 construct: whole, on cells; also called EGF receptor

The next test deals with mouse EGFR (mouse, UniProt Q01279 25-647, limits assumed). In words: SPR Biacore. For orientation: Surface plasmon resonance follows binding to a sensor surface in real time, without labels.
In the next test the target is rat EGFR (rat, UniProt A0ABK0LZB0 35-1214). The test can be described thus: SPR Biacore.
The target of a further test is monkey EGFR (monkey). The test can be described thus: SPR Biacore.
Test [3] addresses T3, IGF-IR on human tumour cells (H292, MCF-7, RH41) (human, UniProt P08069 31-1367). The test can be described thus: cell-based or functional assay.
In test [4] the target is T2, EGFR on the surface of human tumour …. The test can be described thus: cell-based or functional assay.
For test [5] the target is unchanged. The test can be described thus: cell-based or functional assay. The source holds these as a separate data set.
The target of test [6] is T4, Recombinant human EGFR-Fc (aa 1-645 of the extracellular domain of human EGFR fused to human Fc) (human, UniProt P00533 25-645).
T4 construct: range 1-645; bought from R&D Systems; also called EGFR645-Fc; EGFR-Fc (HER-1); not shown: human Fc

Test [7] has as its target T1, IGF1R-Fc (extracellular domain of human …). This is another data set of the same source.
For test [8] the target is unchanged. The source holds these as a separate data set.
Test [9] addresses T4, Recombinant human EGFR-Fc (aa 1-645 of …). The source holds these as a separate data set.
The target of test [10] is T3, IGF-IR on human tumour cells (H292, …). In words: cell-based or functional assay. This is another data set of the same source.
Test [11] deals with T2, EGFR on the surface of human tumour …. In words: cell-based or functional assay. This is another data set of the same source.
Test [12] shares this target. The source holds these as a separate data set.
Test [13] deals with T4, Recombinant human EGFR-Fc (aa 1-645 of …). The source holds these as a separate data set.
In test [14] the target is T2, EGFR on the surface of human tumour …. The test can be described thus: cell-based or functional assay. This is another data set of the same source.
The target of test [15] is T3, IGF-IR on human tumour cells (H292, …). In words: cell-based or functional assay. This is another data set of the same source.
Test [16] addresses T2, EGFR on the surface of human tumour …. The source holds these as a separate data set.
The target of test [17] is T3, IGF-IR on human tumour cells (H292, …). The test can be described thus: cell-based or functional assay. The source holds these as a separate data set.
The target of test [18] is T2, EGFR on the surface of human tumour …. The test can be described thus: cell-based or functional assay. The source holds these as a separate data set.

Changes are numbered by the printed parent chain. “And” between values parts separate entries of the source, which are not always exact repeats. Equal entries are not always repeated. Where two headings read alike, the source gives them in different places.

The record followed here is US20180037631A1 (Bristol-Myers Squibb, published 2018).

B1: E4-GS10-I1 pegylated, His-tagged (designed binder)
chain: MGVSDVPRDLEVVAATPTSLLISWHERDGSRQYYRITYGETGGNSPVQEFTVPGGVRTATISGLKPGVDYTITVYAVTDYFNPTTHEYIYQTTPISINYRTEIDKGSGSGSGSGSGSGSGSGSGSVSDVPRDLEVVAATPTSLLISWSARLKVARYYRITYGETGGNSPVQEFTVPKNVYTATISGLKPGVDYTITVYAVTRFRDYQPISINYRTEIDKPCQHHHHHH
modifications: 40 kDa branched PEG on the Cys of the C-terminal Cys tail
notes: also called E4-GS10-I1 (with Peg)
Regarding B1, the equilibrium dissociation constant (Kd) (usually the free concentration of one partner at which half of the binding sites on the other are occupied at equilibrium, for simple one-to-one binding) is 0.77 nM in test [1]; 6.9 nM with mouse EGFR; 5.6 nM with rat EGFR; 5.7 nM with monkey EGFR; 4.77 nM in test [6]. In test [2], inhibition was half-maximal at 19.5 nM (IC50). Further, the “IC50, IGF1-stimulated IGFR phosphorylation, H292 cells, ELISA” value in [3] stood at 0.4 nM. In addition, in test [4], the “IC50, EGF-induced EGFR phosphorylation, A431 cells, In Cell Western” value was 12 nM. Besides, the “IC50, EGF-induced ERK phosphorylation, A431 cells, In Cell Western” value in [4] came to 12 nM. For the same molecule, the “IC50, EGF-stimulated EGFR phosphorylation, H292 cells, ELISA” value in test [4] amounted to 1.3 nM. In addition, in [5], the “H292 colony formation assay IC50” value is 5 nM.

B2: E3-GS10-I1, non-pegylated (designed binder)
chain: VSDVPRDLEVVAATPTSLLISWLPGKLRYQYYRITYGETGGNSPVQEFTVPHDLRTATISGLKPGVDYTITVYAVTNMMHVEYSEYPISINYRTEIDKGSGSGSGSGSGSGSGSGSGSVSDVPRDLEVVAATPTSLLISWSARLKVARYYRITYGETGGNSPVQEFTVPKNVYTATISGLKPGVDYTITVYAVTRFRDYQPISINYRTEIDKPSQ
Consider B2, for which, in test [7], binding was characterised by a dissociation constant (Kd) of 0.12 nM; the off-rate (koff) (usually the rate constant with which the complex falls apart) stood at 0.000209 s⁻¹; the association rate constant (kon) (in general, the rate constant with which the complex forms) is 1.8e+06 M⁻¹ s⁻¹. The molecule also registered a Kd in test [8] of 0.1 nM. Moreover, in [9], the dissociation constant (Kd) came to 0.7 nM. Besides, the “H292 pIGF-IR IC50 (ELISA)” value in test [10] was found to be 6 nM. In [11], the “A431 pEGFR IC50 (In-Cell Western)” value turned out to be 14 nM, the “A431 pERK IC50 (In-Cell Western)” value stood at 12 nM and the “H292 pEGFR IC50 (ELISA)” value was 7 nM. Also, the IC50 (in general, the concentration needed to halve the response being measured) in test [12] was 25 nM. In addition, in test [13], the dissociation constant (Kd) amounted to 0.66 nM, the koff came out at 0.000229 s⁻¹ and the on-rate (kon) came out at 349000 M⁻¹ s⁻¹.

B3: E1-GS10-I1 pegylated, His-tagged (designed binder)
chain: MGVSDVPRDLEVVAATPTSLLISWVAGAEDYQYYRITYGETGGNSPVQEFTVPHDLVTATISGLKPGVDYTITVYAVTDMMHVEYTEHPISINYRTEIDKGSGSGSGSGSGSGSGSGSGSVSDVPRDLEVVAATPTSLLISWSARLKVARYYRITYGETGGNSPVQEFTVPKNVYTATISGLKPGVDYTITVYAVTRFRDYQPISINYRTEIDKPCQHHHHHH
modifications: 40 kDa branched PEG on the Cys of the C-terminal Cys tail
notes: also called E1-GS10-I1 (with PEG)
Molecule B3 returned a Kd in test [1] of 2.43 nM. In test [14], the “inhibition of EGF induced EGFR phosphorylation, A431, IC50” value amounted to 297 nM; the “inhibition of EGF induced ERK phosphorylation, A431, IC50” value was found to be 295 nM; the “inhibition of EGFR activity, H292 cells, IC50” value worked out at 123 nM. Besides, the half-maximal inhibitory concentration (IC50) in test [2] was found to be 238 nM. Besides, binding in [8] was characterised by a dissociation constant (Kd) of 2.4 nM. For the same molecule, in [9], the Kd was found to be 57.9 nM. Besides, in [10], the “H292 pIGF-IR IC50 (ELISA)” value was 4 nM. Also, in [11], the “A431 pEGFR IC50 (In-Cell Western)” value was 297 nM, the “A431 pERK IC50 (In-Cell Western)” value stood at 295 nM and the “H292 pEGFR IC50 (ELISA)” value was determined as 123 nM. The IC50 in [12] is 396 nM.

B4: E3-GS10-I1 pegylated, His-tagged (designed binder)
chain: B3 chain with V25L, A26P, A28K, E29L, D30R, V57R, D79N, T86S, H88Y
modifications: 40 kDa branched PEG on the Cys of the C-terminal Cys tail
notes: also called E3-GS10-I1-Cys (with his)
On to B4, for which the “inhibition of IGFR activity, H292 cells, IC50” value in test [15] amounted to 6 nM. The IC50 in [2] was 89 nM. Also, the affinity in [8], expressed as Kd, was 0.74 nM. In [9], the Kd was 10.4 nM. For the same molecule, the “H292 pIGF-IR IC50 (ELISA)” value in [10] is 6 nM. In [11], the “A431 pEGFR IC50 (In-Cell Western)” value worked out at 42 nM, the “A431 pERK IC50 (In-Cell Western)” value came out at 40 nM and the “H292 pEGFR IC50 (ELISA)” value was 10 nM. Besides, the IC50 in test [12] came out at 80.5 nM.

B5: E1-GS10-I1, His-tagged, non-pegylated (designed binder)
chain: B3 chain with C216S
notes: bispecific EGFR/IGF-IR tandem of two 10Fn3 domains
Regarding B5, in test [7], the Kd amounted to 0.66 nM, the koff was determined as 0.000338 s⁻¹ and the kon was found to be 513000 M⁻¹ s⁻¹. For the same molecule, in test [15], the “inhibition of IGF1-stimulated IGF1R phosphorylation (Y1131), H292 cells, ELISA, IC50” value was 4 nM and the “inhibition of RH41 cell proliferation, IC50” value was determined as 9 nM. For the same molecule, the “inhibition of EGF-stimulated EGFR phosphorylation (Y1068), H292 cells, ELISA, IC50” value in [14] came to 20 nM. For the same molecule, the equilibrium dissociation constant (Kd) in [8] worked out at 0.8 nM. This molecule also displayed a half-inhibitory concentration (IC50) in test [16] of 14.6 nM. Besides, in test [9], the dissociation constant Kd was 3.8 nM. Also, the “H292 pIGF-IR IC50 (ELISA)” value in [10] was determined as 1 nM. Also, in test [11], the “A431 pEGFR IC50 (In-Cell Western)” value stood at 36 nM, the “A431 pERK IC50 (In-Cell Western)” value was found to be 51 nM and the “H292 pEGFR IC50 (ELISA)” value stood at 30 nM. In [12], this molecule had an IC50 of 51 nM. Further, in test [13], the dissociation constant Kd was 10.2 nM and 7.53 nM; the off-rate (koff) is 0.000389 s⁻¹ and 0.000474 s⁻¹; the kon is 38200 M⁻¹ s⁻¹ and 62900 M⁻¹ s⁻¹.

B6: I1-GS10-E1, His-tagged, non-pegylated (designed binder)
chain: MGVSDVPRDLEVVAATPTSLLISWSARLKVARYYRITYGETGGNSPVQEFTVPKNVYTATISGLKPGVDYTITVYAVTRFRDYQPISINYRTEIDKGSGSGSGSGSGSGSGSGSGSVSDVPRDLEVVAATPTSLLISWVAGAEDYQYYRITYGETGGNSPVQEFTVPHDLVTATISGLKPGVDYTITVYAVTDMMHVEYTEHPISINYRTEIDKPSQHHHHHH
For B6, in [7], binding was characterised by a dissociation constant (Kd) of 0.27 nM, the off-rate constant (koff) came to 0.000398 s⁻¹ and the on-rate constant (kon) amounted to 1.47e+06 M⁻¹ s⁻¹. This molecule also gave a half-maximal inhibitory concentration (IC50) in test [16] of 7 nM. The “IC50, IGF1-stimulated IGFR phosphorylation, H292 cells, ELISA” value in test [17] is 1 nM. In test [18], the “IC50, EGF-stimulated EGFR phosphorylation, A431 cells, In Cell Western” value was 93 nM; the “IC50, EGF-stimulated EGFR phosphorylation, H292 cells, ELISA” value came to 42 nM; the “IC50, EGF-stimulated ERK phosphorylation, A431 cells, In Cell Western” value stood at 99 nM. For the same molecule, in [13], the equilibrium dissociation constant (Kd) was 4.8 nM and 10.3 nM; the off-rate constant (koff) is 0.000603 s⁻¹ and 0.000425 s⁻¹.

B7: I1-GS10-E4 pegylated, His-tagged (designed binder)
chain: MGVSDVPRDLEVVAATPTSLLISWSARLKVARYYRITYGETGGNSPVQEFTVPKNVYTATISGLKPGVDYTITVYAVTRFRDYQPISINYRTEIDKGSGSGSGSGSGSGSGSGSGSVSDVPRDLEVVAATPTSLLISWHERDGSRQYYRITYGETGGNSPVQEFTVPGGVRTATISGLKPGVDYTITVYAVTDYFNPTTHEYIYQTTPISINYRTEIDKPCQHHHHHH
modifications: 40 kDa branched PEG on the Cys of the C-terminal Cys tail
B7: the equilibrium dissociation constant (Kd) in test [1] is 0.46 nM; with mouse EGFR it was 5.5 nM; with rat EGFR it was 3.7 nM; with monkey EGFR it was 3.9 nM; in test [6], 3.63 nM. The same molecule returned a half-maximal inhibitory concentration (IC50) in test [2] of 38.1 nM. Further, in test [3], the “IC50, IGF1-stimulated IGFR phosphorylation, H292 cells, ELISA” value stood at 0.2 nM. For the same molecule, the “IC50, EGF-induced EGFR phosphorylation, A431 cells, In Cell Western” value in test [4] is 12 nM. In addition, the “IC50, EGF-induced ERK phosphorylation, A431 cells, In Cell Western” value in test [4] amounted to 13 nM. Besides, in test [4], the “IC50, EGF-stimulated EGFR phosphorylation, H292 cells, ELISA” value stood at 4 nM. Further, the “H292 colony formation assay IC50” value in test [5] came to 6 nM.
